Source: patent US20200338210A1 (ARDEAGEN, published 2020)
Each block holds one molecule with its values, some of them ahead of it.

Columns and labels:
human ROR1 on cell lines [1] = target: T1, human ROR1 on cell lines (human, UniProt Q01973 30-937); assay: quantitative flow cytometry on HCCLM3 cells (cell only 1014)
T1 construct: Jeko-1 'bearing the ROR1 antigen'); also called Receptor tyrosine kinase-like orphan receptor 1

human ROR1 on cell lines [2] = target: T1, human ROR1 on cell lines; assay: quantitative flow cytometry on MHCC97H cells (cell only 781)
human ROR1 on cell lines [3] = target: T1, human ROR1 on cell lines; assay: quantitative flow cytometry on MDA-MD-231 cells (cell only 942.92)
human ROR1 on cell lines [4] = target: T1, human ROR1 on cell lines; assay: quantitative flow cytometry on NCI-H226 cells (cell only 1536.32)
human ROR1 on cell lines [5] = target: T1, human ROR1 on cell lines; assay: quantitative flow cytometry on KATO-III cells (cell only 1075.85)
human ROR1 on cell lines [6] = target: T1, human ROR1 on cell lines; assay: quantitative flow cytometry on KATO-III cells (cell only 764)
human ROR1 on cell lines [7] = target: T1, human ROR1 on cell lines; assay: quantitative flow cytometry on MKN-45 cells (cell only 641.4)
human ROR1 on cell lines [8] = target: T1, human ROR1 on cell lines; assay: quantitative flow cytometry on MHCC97H cells (cell only 1099.77)
human ROR1 on cell lines [9] = target: T1, human ROR1 on cell lines; assay: quantitative flow cytometry on Jeko-1 cells (cell only 340.33)
human ROR1 on cell lines [10] = target: T1, human ROR1 on cell lines; assay: quantitative flow cytometry on MDA-MD-231 cells (cell only 668)
human ROR1 on cell lines [11] = target: T1, human ROR1 on cell lines; assay: quantitative flow cytometry on NCI-H2228 cells (cell only 894.37)
human ROR1 on cell lines [12] = target: T1, human ROR1 on cell lines; assay: quantitative flow cytometry on NCI-H226 cells (cell only 1097)
human ROR1 on cell lines [13] = target: T1, human ROR1 on cell lines; assay: quantitative flow cytometry on Jeko-1 cells (cell only 237)
human ROR1 on cell lines [14] = target: T1, human ROR1 on cell lines; assay: quantitative flow cytometry on Daudi cells (cell only 229)
human ROR1 on cell lines [15] = target: T1, human ROR1 on cell lines; assay: quantitative flow cytometry on Namalwa cells (cell only 319.84)
human ROR1 on cell lines [16] = target: T1, human ROR1 on cell lines; assay: quantitative flow cytometry on Namalwa cells (cell only 222)
human ROR1 on cell lines [17] = target: T1, human ROR1 on cell lines; assay: quantitative flow cytometry on MKN-45 cells (cell only 451)
human ROR1 on cell lines [18] = target: T1, human ROR1 on cell lines; assay: quantitative flow cytometry on Daudi cells (cell only 328.77)
human ROR1 on cell lines [19] = target: T1, human ROR1 on cell lines; assay: quantitative flow cytometry on HCCLM3 cells (cell only 1420.81)
human ROR1 on cell lines [20] = target: T1, human ROR1 on cell lines; assay: quantitative flow cytometry on NCI-H2228 cells (cell only 633)
human ROR1 on cell lines [21] = target: T1, human ROR1 on cell lines; assay: flow cytometry on Jeko-1 cells, FITC secondary, 4 C (on ice) T0 (secondary only 242)
Description: (§1) The following JeKo-1 internalization assay was used. [0179] 1. Harvest Jeko-1 cells (suspension): count and spin down required cell number for experiment in 15 ml falcon tube. Re-suspended in PBS+3% FBS in bulk and aliquoted 100 μl (500,000 cells) per tube. [0180] 2. 2 μg each ADC per tube were added from bulk dilution, incubated 4° C. (on ice) for 1 hour. [0181] 3. 3×wash in 3 ml PBS+3% FBS. Centrifuge set to 1200 RPM for 3 min spin. Carefully decanted and discarded supernatant at each step. Pulse vortexed cell pellets. Left equal volumes in tubes after final wash. [0182] 4. Placed one set of tubes at 37° C. for each Ab tested, included secondary only control set for comparison. T₀=4° C., T₁=37° C. 30 min, T₁=37+ C., […] [0183] 5. After incubation times were complete, removed tubes from incubator and keep on ice until all samples were collected. [0184] 6. Added FITC labelled secondary, incubate on ice 45 min. [0185] 7. 3×wash in 3 ml PBS+3% FBS. Centrifuge set to 1500 RPM for 5 min spin. Carefully decanted and discarded supernatant at each step. Pulse vortexed cell pellets. Left equal volumes in tubes after final wash. [0186] 8. Collected data on instrument

human ROR1 on cell lines [22] = target: T1, human ROR1 on cell lines; assay: flow cytometry on Jeko-1 cells, FITC secondary, surface signal left after 37 C, 30 min T1 (secondary only 216)
Description: as §1

human ROR1 on cell lines [23] = target: T1, human ROR1 on cell lines; assay: flow cytometry on Jeko-1 cells, FITC secondary, surface signal left after 37 C, 2.5 hr T2 (secondary only 215)
Description: as §1

[24] = target: T2, ROR1 (target of the KD values in Table 7) (Homo sapiens (Human), UniProt Q01973 30-403, limits assumed); assay: method not stated (Table 7); upper end of the printed range 100-400 pM
T2 sequence (Q01973 30-403 limits assumed): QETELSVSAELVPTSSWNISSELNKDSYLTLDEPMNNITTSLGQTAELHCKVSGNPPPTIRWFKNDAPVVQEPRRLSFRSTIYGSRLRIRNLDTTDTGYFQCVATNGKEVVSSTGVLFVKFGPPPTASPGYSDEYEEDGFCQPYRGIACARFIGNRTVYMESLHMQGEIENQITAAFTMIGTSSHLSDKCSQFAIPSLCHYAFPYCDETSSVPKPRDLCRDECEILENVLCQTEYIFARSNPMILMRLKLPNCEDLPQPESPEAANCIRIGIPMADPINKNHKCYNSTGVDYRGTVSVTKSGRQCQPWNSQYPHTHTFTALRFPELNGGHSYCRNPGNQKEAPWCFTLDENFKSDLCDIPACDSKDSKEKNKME

[25] = target: T2, ROR1 (target of the KD values in Table …); assay: method not stated (Table 7); lower end of the printed range 100-400 pM

T1 sequence (Q01973 30-937 limits assumed): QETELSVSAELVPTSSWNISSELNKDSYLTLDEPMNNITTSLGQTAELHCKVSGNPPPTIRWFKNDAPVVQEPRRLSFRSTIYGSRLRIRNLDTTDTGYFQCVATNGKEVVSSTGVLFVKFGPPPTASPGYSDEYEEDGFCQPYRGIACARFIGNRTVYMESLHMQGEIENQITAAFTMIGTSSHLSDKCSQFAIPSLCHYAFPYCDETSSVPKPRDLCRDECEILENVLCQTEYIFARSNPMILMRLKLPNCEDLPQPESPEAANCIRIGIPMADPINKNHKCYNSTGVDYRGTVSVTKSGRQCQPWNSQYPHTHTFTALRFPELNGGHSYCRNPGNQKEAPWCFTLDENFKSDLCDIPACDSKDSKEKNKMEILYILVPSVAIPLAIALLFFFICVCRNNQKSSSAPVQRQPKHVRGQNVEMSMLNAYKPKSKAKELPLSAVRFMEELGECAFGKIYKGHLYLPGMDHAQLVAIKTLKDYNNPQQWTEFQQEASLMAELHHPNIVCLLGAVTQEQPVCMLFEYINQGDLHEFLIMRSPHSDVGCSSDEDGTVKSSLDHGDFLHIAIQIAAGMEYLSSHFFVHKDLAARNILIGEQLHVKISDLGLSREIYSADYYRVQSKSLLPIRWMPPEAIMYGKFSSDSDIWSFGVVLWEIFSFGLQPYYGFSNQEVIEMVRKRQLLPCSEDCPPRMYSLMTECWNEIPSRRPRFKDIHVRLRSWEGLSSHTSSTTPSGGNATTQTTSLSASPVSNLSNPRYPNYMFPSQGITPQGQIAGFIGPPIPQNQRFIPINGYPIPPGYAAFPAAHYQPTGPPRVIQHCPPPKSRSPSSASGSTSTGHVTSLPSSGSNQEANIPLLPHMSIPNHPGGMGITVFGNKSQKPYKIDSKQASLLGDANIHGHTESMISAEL

Molecule: mIgG (antibody)
Ab binding capacity/cell (human ROR1 on cell lines [1]): 1024 per cell | Ab binding capacity/cell (human ROR1 on cell lines [2]): 757 per cell | MFI (Geom. mean of FL2) (human ROR1 on cell lines [3]): 931 | MFI (Geom. mean of FL2) (human ROR1 on cell lines [4]): 1400 | MFI (Geom. mean of FL2) (human ROR1 on cell lines [5]): 1070 | Ab binding capacity/cell (human ROR1 on cell lines [6]): 760 per cell | MFI (Geom. mean of FL2) (human ROR1 on cell lines [7]): 659 | MFI (Geom. mean of FL2) (human ROR1 on cell lines [8]): 1070 | MFI (Geom. mean of FL2) (human ROR1 on cell lines [9]): 338 | Ab binding capacity/cell (human ROR1 on cell lines [10]): 660 per cell | MFI (Geom. mean of FL2) (human ROR1 on cell lines [11]): 849 | Ab binding capacity/cell (human ROR1 on cell lines [12]): 996 per cell | Ab binding capacity/cell (human ROR1 on cell lines [13]): 235 per cell | Ab binding capacity/cell (human ROR1 on cell lines [14]): 227 per cell | MFI (Geom. mean of FL2) (human ROR1 on cell lines [15]): 294 | Ab binding capacity/cell (human ROR1 on cell lines [16]): 204 per cell | Ab binding capacity/cell (human ROR1 on cell lines [17]): 464 per cell | MFI (Geom. mean of FL2) (human ROR1 on cell lines [18]): 327 | MFI (Geom. mean of FL2) (human ROR1 on cell lines [19]): 1430 | Ab binding capacity/cell (human ROR1 on cell lines [20]): 600 per cell

B1: 2A2-untagged (antibody, V domains shown)
VH: QVQLQQSGAELVRPGASVTLSCKASGYTFSDYEMHWVIQTPVHGLEWIGAIDPETGGTAYNQKFKGKAILTADKSSSTAYMELRSLTSEDSAVYYCTGYYDYDSFTYWGQGTLVTVSA
VL: DIVMTQSQKIMSTTVGDRVSITCKASQNVDAAVAWYQQKPGQSPKLLIYSASNRYTGVPDRFTGSGSGTDFTLTISNMQSEDLADYFCQQYDIYPYTFGGGTKLEIK
notes: also called untagged 2A2
MFI (human ROR1 on cell lines [21]): 1070 | MFI (human ROR1 on cell lines [22]): 1070 | MFI (human ROR1 on cell lines [23]): 882

B5: 2A2-CH1/C-Terminal double tag (antibody, V domains shown)
VH: B1 VH
VL: B1 VL
modifications: tags in CH1 and at the C-terminus (sequences and positions not given)
notes: The protocol speaks of 'each ADC', so a payload may be attached; none is named; also called CH1/CT double-tagged 2A2
MFI (human ROR1 on cell lines [21]): 1100 | MFI (human ROR1 on cell lines [22]): 869 | MFI (human ROR1 on cell lines [23]): 658

Continued, values first:

Kd [24]: ≤ 0.4 nM | Kd [25]: ≥ 0.1 nM
B2: Mouse 2A2 Antibody (antibody, mouse IgG1, kappa, V domains shown)
VH: B1 VH
VL: DIVMTQSQKIMSTTVGDRVSITCKASQNVDAAVAWYQQKPGQSPKLLIYSASNRYTGVPDRFTGSGSGTDFTLTISNMQSEDLADYFCQQYDIYPYTFGGGTKLEIKR
notes: also called m2A2; 2A2 anti-ROR1 antibodies

MFI (human ROR1 on cell lines [21]): 990 | MFI (human ROR1 on cell lines [22]): 959 | MFI (human ROR1 on cell lines [23]): 750
B3: 2A2-C-Terminal tag (antibody, V domains shown)
VH: B1 VH
VL: B1 VL
modifications: C-terminal tag on the antibody (sequence not given)
notes: The protocol speaks of 'each ADC', so a payload may be attached; none is named; also called CT-tagged 2A2; C-terminal (CT)-tagged 2A2

MFI (human ROR1 on cell lines [21]): 1100 | MFI (human ROR1 on cell lines [22]): 1050 | MFI (human ROR1 on cell lines [23]): 786
B4: 2A2-CH1 tag (antibody, V domains shown)
VH: B1 VH
VL: B1 VL
modifications: tag in CH1 (sequence and position not given)
notes: The protocol speaks of 'each ADC', so a payload may be attached; none is named; also called CH1-tagged 2A2
